The values that follow come from US20240141039A1 (AGENUS, published 2024).

Read-outs that look alike come from different tables or passages of the source.

For orientation: EC50 (read off the curve) means the concentration at which the effect is half-maximal. What is called EC50 is the concentration giving half of the maximal effect.

For assay [1], the target named is CD8+ T cells (CD3-stimulated; Day 4). Nature of the assay: flow cytometry on activated primary human T cells, gated CD8+, donor 2; PE anti-human IgG detection. A general note: Flow cytometry measures light scatter and fluorescence of single cells or particles in a stream.
Method: A total of 8 dilutions ranging from 50 μg/mL to 0.000005 μg/mL were prepared. After four days, the sample plates were centrifuged for two minutes at 2000 rpm, and supernatants were discarded. Samples were blocked with FcγR Block prepared in FACs buffer at 5 μL per 100 μL test for 10 minutes. Sample plates were then centrifuged for two minutes at 2000 rpm, and the supernatant was discarded. The cells were then re-suspended in 100 μL of anti-TIGIT×CD96 multispecific molecule or a relevant isotype control at the concentrations shown in FIGS. 26A-26F. Sample plates were incubated for 30 minutes at 4° C. Cells were washed by addition of cold sample buffer and centrifuged for two minutes at 2000 rpm, and the supernatant was discarded. This wash was repeated once.
Cells were then resuspended in a cocktail of fluorescently labeled antibodies. A cocktail of fluorescently labeled antibodies sufficient for all samples was prepared in FACs buffer. 100 μL of antibody per well was then added to a round-bottom 96-well plate. […]
Antibody binding was measured by flow cytometry using a BD LSR Fortessa Flow Cytometer. […] 100,000 events were recorded for each sample. Samples were analyzed by sequentially gating on the following populations: FSC-A vs. SSC-A, FSC-H vs. FSC-A, SSC-A vs. LIVE/DEAD, CD4 vs. CD8, and SSC vs. CD25. Mean fluorescence intensity (MFI) was calculated.
For assay [2], the target named is T1, wild type full-length human TIGIT expressed on cells (human, UniProt Q495A1 22-244).
T1 construct: whole, on cells; also called human TIGIT-CHO; human TIGIT CHO cells
T1 sequence (looked up): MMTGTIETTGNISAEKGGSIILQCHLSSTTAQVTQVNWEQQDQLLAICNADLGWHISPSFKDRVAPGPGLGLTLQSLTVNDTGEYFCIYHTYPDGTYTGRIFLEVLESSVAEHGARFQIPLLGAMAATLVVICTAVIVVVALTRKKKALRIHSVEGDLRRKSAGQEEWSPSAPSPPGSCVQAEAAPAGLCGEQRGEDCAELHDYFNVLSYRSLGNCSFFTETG
The experiment in a line: flow cytometry, blocking of human CD155-Fc-PE binding to CHO cells expressing human TIGIT. How it is done: (§1) A 4× concentrated intermediate stock of each multispecific molecule was prepared in a microplate. Antibodies were serially diluted 1-to-3 in FACS buffer. […] Lastly, 25 μL of human TIGIT-CHO cells, prepared as described above, were added to each well. After a 30-minute incubation on ice, the cells were washed twice with cold FACS Buffer, and the cells were analyzed by flow cytometry (BD LSR Fortessa Flow Cytometer). The data were analyzed using the FlowJo software by sequentially gating on the FSC-A vs. SSC-A and SSC-H vs. SSC-A. Mean fluorescence intensity (MFI) values for PE were calculated, and the data were plotted by GraphPad Prism software and analyzed as described above.

In assay [3] the target is T2, full-length human FcγRIIIa variant V/V expressed on CHO cells (human, UniProt P08637 17-254).
T2 construct: whole, on cells; also called human FcγRIIIa-CHO (variant V/V); human FcγRIIIa (V/V) CHO cells
T2 sequence (P08637 other isoform, or with tags, fused parts or gaps mutant limits assumed): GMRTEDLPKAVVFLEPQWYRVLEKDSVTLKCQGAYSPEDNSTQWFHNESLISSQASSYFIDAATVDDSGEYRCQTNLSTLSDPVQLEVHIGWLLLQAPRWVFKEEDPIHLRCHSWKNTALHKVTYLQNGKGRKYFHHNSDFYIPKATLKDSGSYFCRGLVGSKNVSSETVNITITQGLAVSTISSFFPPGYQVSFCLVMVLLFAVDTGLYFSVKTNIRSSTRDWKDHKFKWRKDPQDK
Nature of the assay: flow cytometry, human FcγRIIIa (V/V) CHO cells, 2 experiments. How it is done: (§2) For the antibody binding assay, a frozen aliquot of human FcγRIIIa-CHO cells (variant V/V or variant F/F) was thawed at 37° C. and then transferred to a tube containing DPBS supplemented with 0.5% Bovine Serum Albumin and 0.05% Sodium Azide (FACS Buffer). Cells were centrifuged at 300 g for five minutes. The supernatant was discarded, and cells resuspended in FACS buffer were seeded in a 96-well U-bottom tissue culture plate at a density of 2×10⁵ cells per well in 50 μL. In a separate microplate, a 2× concentrated intermediate stock of each antibody was prepared. Antibodies were serially diluted 1-to-4 in FACS buffer. A total of 11 working dilutions ranging from 60 μg/mL to 0.000057 μg/mL were prepared. Fifty microlitres of each dilution were then transferred to the microplate containing human FcγRIIIa-CHO (variant V/V or variant F/F) cells. The cells were then incubated for 45 minutes at 4° C. […] After a 30-minute incubation on ice, the cells were washed twice with cold FACS Buffer, and the cells were analyzed by flow cytometry (BD LSR Fortessa Flow Cytometer). The data were analyzed using the FlowJo software by sequentially gating the FSC-A vs. SSC-A, and SSC-H vs. SSC-A. Mean fluorescence intensity (MFI) values for PE were calculated, and the data were plotted by GraphPad Prism software.

Assay [4] deals with T1, wild type full-length human TIGIT …. The experiment in a line: flow cytometry on CHO cells expressing human TIGIT, PE anti-human IgG Fc detection. Here is the method: The ability of anti-TIGIT antibodies to bind to wild type human TIGIT expressed on the surface of CHO cells was assessed. Briefly, CHO cells were transfected with a vector encoding wild type human TIGIT (human TIGIT-CHO), and clones stably expressing TIGIT were selected.
as §2, with “TIGIT-CHO” for “FcγRIIIa-CHO”, “cells” for “cells (variant V/V or variant F/F)”, “2×10⁵” left out, “prepared.” for “prepared. Fifty microlitres of each dilution were then transferred to the microplate containing human FcγRIIIa-CHO (variant V/V or variant F/F) cells. The cells were then incubated for 45 minutes at 4° C.”

Assay [5] concerns the target T3, wild type full-length cynomolgus monkey TIGIT expressed on CHO cells (cynomolgus monkey, UniProt A0A7N9I9V4 89-312).
T3 construct: whole, on cells; also called cynomolgus TIGIT-CHO cells
Nature of the assay: flow cytometry on CHO cells expressing cynomolgus TIGIT, PE anti-human IgG Fc detection.

Assay [6] concerns the target T1, wild type full-length human TIGIT …. The experiment in a line: flow cytometry, blocking of human CD155-Fc-PE binding to CHO cells expressing human TIGIT. Here is the method:
as §1, with “antibody” for “multispecific molecule”, “1-to-4” for “1-to-3”
The source holds these as a separate data set.

T3 sequence (A0A7N9I9V4 entry or part of it): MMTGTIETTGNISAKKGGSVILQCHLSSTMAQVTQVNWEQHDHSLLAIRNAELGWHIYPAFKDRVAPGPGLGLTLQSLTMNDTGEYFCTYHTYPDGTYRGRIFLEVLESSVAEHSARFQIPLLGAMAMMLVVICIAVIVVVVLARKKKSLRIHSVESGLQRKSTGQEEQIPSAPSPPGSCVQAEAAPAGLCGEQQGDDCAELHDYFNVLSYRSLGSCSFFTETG

B1: anti-TIGIT×CD96 multispecific molecule BA127 (bispecific antibody, human IgG1, kappa, lambda)
heavy 1: QVQLVQSGAEVKKPGASVKVSCKASGYTFTTYALHWVRQAPGQRLEWMGWINTGSGDTKYSQKFQGRVTITRDTSASTAYMELSSLRSEDTAVYYCARSLGVYYGMDVWGQGTLVTVSSASTKGPSVFPLAPSSKSTSGGTAALGCLVKDYFPEPVTVSWNSGALTSGVHTFPAVLQSSGLYSLSSVVTVPSSSLGTQTYICNVNHKPSNTKVDKRVEPKSCDKTHTCPPCPAPELLGGPDVFLFPPKPKDTLMISRTPEVTCVVVDVSHEDPEVKFNWYVDGVEVHNAKTKPREEQYNSTYRVVSVLTVLHQDWLNGKEYKCKVSNKALPAPIEKTISKAKGQPREPQVYTLPPSREEMTKNQVSLSCAVKGFYPSDIAVEWESNGQPENNYKTTPPVLDSDGSFFLVSKLTVDKSRWQQGNVFSCSVMHEALHNHYTQKSLSLSPG
light 1: not shown
heavy 2: EVQLVQSGAEVKKPGSSVKVSCKASGYTFASYGISWVRQAPGQGLEWMGGITPFFNRVDVAEKFQGRVTITADKSTSTAYIELSSLRSEDTAVYYCARDLRRGGVGDAFDIWGRGTLVTVSSASTKGPSVFPLAPSSKSTSGGTAALGCLVKDYFPEPVTVSWNSGALTSGVHTFPAVLQSSGLYSLSSVVTVPSSSLGTQTYICNVNHKPSNTKVDKRVEPKSCDKTHTCPPCPAPELLGGPDVFLFPPKPKDTLMISRTPEVTCVVVDVSHEDPEVKFNWYVDGVEVHNAKTKPREEQYNSTYRVVSVLTVLHQDWLNGKEYKCKVSNKALPLPEEKTISKAKGQPREPQVYTLPPSREEMTKNQVSLWCLVKGFYPSDIAVEWESNGQPENNYKTTPPVLDSDGSFFLYSKLTVDKSRWQQGNVFSCSVMHEALHNHYTQKSLSLSPG
light 2: QSALTQPRSVSGSPGQSVTISCTGTSPDVGSHAYRSWYQQHPGKAPKLMIYEVSYRPSGVSNRFSGSKSGNTASLTISGLQAEDEADYYCSSYPPSSATVFGAGTKLTVLGQPKAAPSVTLFPPSSEELQANKATLVCLISDFYPGAVTVAWKADSSPVKAGVETTTPSKQSNNKYAASSYLSLTPEQWKSHRSYSCQVTHEGSTVEKTVAPTEC
notes: Anti-CD96 arm = BA139, anti-TIGIT arm = BA150; copies: 1 + 1 + 1 + 1
With B1, the concentration giving a half-maximal response (EC50 (read off the curve)) in assay [1] was ~0.3 µg/mL. Besides, the “IC50 (read off the curve)” value in assay [2] was ~0.1 µg/mL.

B2: anti-TIGIT monospecific antibody BA148 (antibody, human IgG1, lambda)
heavy: EVQLVQSGAEVKKPGSSVKVSCKASGYTFASYGISWVRQAPGQGLEWMGGITPFFNRVDVAEKFQGRVTITADKSTSTAYIELSSLRSEDTAVYYCARDLRRGGVGDAFDIWGRGTLVTVSSASTKGPSVFPLAPSSKSTSGGTAALGCLVKDYFPEPVTVSWNSGALTSGVHTFPAVLQSSGLYSLSSVVTVPSSSLGTQTYICNVNHKPSNTKVDKRVEPKSCDKTHTCPPCPAPELLGGPDVFLFPPKPKDTLMISRTPEVTCVVVDVSHEDPEVKFNWYVDGVEVHNAKTKPREEQYNSTYRVVSVLTVLHQDWLNGKEYKCKVSNKALPLPEEKTISKAKGQPREPQVYTLPPSREEMTKNQVSLTCLVKGFYPSDIAVEWESNGQPENNYKTTPPVLDSDGSFFLYSKLTVDKSRWQQGNVFSCSVMHEALHNHYTQKSLSLSPGK
light: QSALTQPRSVSGSPGQSVTISCTGTSPDVGSHAYRSWYQQHPGKAPKLMIYEVSYRPSGVSNRFSGSKSGNTASLTISGLQAEDEADYYCSSYPPSSATVFGAGTKLTVLGQPKAAPSVTLFPPSSEELQANKATLVCLISDFYPGAVTVAWKADSSPVKAGVETTTPSKQSNNKYAASSYLSLTPEQWKSHRSYSCQVTHEGSTVEKTVAPTEC
notes: IgG1; also called anti-TIGIT IgG1 antibody BA148
Take B2: the EC50 in assay [3] amounted to 0.0455 µg/mL. The “EC50 (read off the curve)” value in assay [4] is ~0.008 µg/mL; in assay [5], ~0.04 µg/mL. The “IC50 (read off the curve)” value in assay [6] is ~0.01 µg/mL.
